Reference: patent US20240181007A1, “COMPOSITIONS AND METHODS FOR TREATING PULMONARY HYPERTENSION” (Acceleron Pharma Inc., priority 2021, published 2024)

Columns and labels:
[1] = biological target: T1, BMP9 (Homo sapiens, UniProt Q9UK05); test: A204 cell-based pGL3(CAGA)12 reporter gene assay, signaling by BMP9; conditions: for Inhibitory Potency of Homodimeric ActRIIB-Fc Constructs IC50 BMP9: Table 5, A204 cells, luciferase reporter, ND: not detectable over concentration range tested
T1 sequence (Q9UK05 320-429): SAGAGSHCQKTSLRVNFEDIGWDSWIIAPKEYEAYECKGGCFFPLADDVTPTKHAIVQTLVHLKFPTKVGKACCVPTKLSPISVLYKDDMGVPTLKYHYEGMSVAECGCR
Description: (§1) To determine activity of variant ActRIIB-Fc polypeptides, an A204 cell-based assay was used to compare effects among variant ActRIIB-Fc polypeptides on signaling by activin A, activin B, GDF8, GDF11, BMP9, and BMP10, in comparison to ActRIIB-G1Fc. In brief, this assay uses a human A204 rhabdomyosarcoma cell line (ATCC®: HTB-82™) derived from muscle and the reporter vector pGL3(CAGA)12 (Dennler et al., 1998, EMBO 17: 3091-3100) as well as a Renilla reporter plasmid (pRLCMV) to control for transfection efficiency. The CAGA12 motif is present in TGF-β responsive genes (e.g., PAI-1 gene), so this vector is of general use for ligands that can signal through Smad2/3, including activin A. GDF11, and BMP9.
(§2) On day 1. A204 cells were transferred into one or more 48-well plates. On day 2, these cells were transfected with 10 μg pGL3(CAGA)12 or pGL3(CAGA)12(10 μg)+pRLCMV ([…]) and Fugene. On day 3, ligands diluted in medium containing 0.1% BSA were preincubated with ActRIIB-Fc polypeptides for 1 hr before addition to cells. Approximately six hour later, the cells were rinsed with PBS and lysed. Cell lysates were analyzed in a luciferase assay to determine the extent of Smad activation.
(§3) This assay was used to screen variant ActRIIB-Fc polypeptides for inhibitory effects on cell signaling by activin A, activin B. GDF8, GDF11. BMP9, and BMP10. Potencies of homodimeric Fc fusion polypeptides incorporating amino acid substitutions in the human ActRIIB extracellular domain were compared with that of an Fc fusion polypeptide comprising unmodified human ActRIIB extracellular domain, ActRIIB-G1Fc. For some variants tested, it was not possible to calculate an accurate IC50, but signs of inhibition in the slope of the curves were detectable. For these variants, an estimate was included of the order of magnitude of the relative IC50, i.e. >10 nM or >100 nM instead of a definite number. Such data points are indicated by a (*) in Table 3 below. For some variants tested, there was no detectable inhibition in the slope of the curves over the concentration range tested, which is indicated by “ND” in Table 4.
as §1, with “A,” for “A, activin B, GDF8,”, “GDF11,” for “GDF11, BMP9,”, “and BMP9.” for “and BMP10, in comparison to ActRIIB-G1Fc.”, “(Dennler el” for “(Dennler et”, “activin A,” for “activin A.”
(§4) On day 1, A-204 cells were transferred into one or more 48-well plates. On day 2, these cells were transfected with 10 μg pGL3(CAGA)12 or pGL3(CAGA)12(10 μg)+pRLCMV (1 μg) and Fugene. On day 3, ligands diluted in medium containing 0.1% BSA were preincubated with ActRIIB-Fc polypeptides for 1 hr before addition to cells. Approximately six hour later, the cells were rinsed with PBS and lysed. Cell lysates were analyzed in a luciferase assay to determine the extent of Smad activation.
(§5) This assay was used to screen variant ActRIIB-Fc polypeptides for inhibitory effects on cell signaling by activin A, GDF11, and BMP9. Potencies of homodimeric Fc fusion polypeptides incorporating amino acid substitutions in the human ActRIIB extracellular domain were compared with that of an Fc fusion polypeptide comprising unmodified human ActRIIB extracellular domain.

[2] = biological target: T2, GDF11 (Homo sapiens, UniProt O95390); test: A204 cell-based pGL3(CAGA)12 reporter gene assay, signaling by GDF11; conditions: for Inhibitory Potency of Homodimeric ActRIIB-Fc Constructs IC50 GDF11: Table 5, A204 cells, luciferase reporter, ND: not detectable over concentration range tested
T2 sequence (O95390 299-407): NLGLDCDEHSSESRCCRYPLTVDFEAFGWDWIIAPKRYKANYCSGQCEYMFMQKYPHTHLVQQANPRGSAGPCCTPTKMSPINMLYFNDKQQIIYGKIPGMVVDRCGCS
Description: as §1, §2, §3
as §1, with “A,” for “A, activin B, GDF8,”, “GDF11,” for “GDF11, BMP9,”, “and BMP9.” for “and BMP10, in comparison to ActRIIB-G1Fc.”, “(Dennler el” for “(Dennler et”, “activin A,” for “activin A.”
as §4, §5

[3] = biological target: T3, Activin A (Homo sapiens, UniProt P08476); test: A204 cell-based pGL3(CAGA)12 reporter gene assay, signaling by activin A; conditions: for Inhibitory Potency of Homodimeric ActRIIB-Fc Constructs IC50 Activin A: Table 5, A204 cells, luciferase reporter
T3 sequence (P08476 311-426): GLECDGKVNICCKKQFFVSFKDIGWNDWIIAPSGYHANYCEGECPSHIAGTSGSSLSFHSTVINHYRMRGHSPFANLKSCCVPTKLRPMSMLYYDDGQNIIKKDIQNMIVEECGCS
Description: as §1, §2, §3
as §1, with “A,” for “A, activin B, GDF8,”, “GDF11,” for “GDF11, BMP9,”, “and BMP9.” for “and BMP10, in comparison to ActRIIB-G1Fc.”, “(Dennler el” for “(Dennler et”, “activin A,” for “activin A.”
as §4, §5

[4] = biological target: T4, GDF11 (UniProt O95390 299-407); test: cell-based or functional assay
T4 construct: also called Growth and differentiation factor-11; BMP11
T4 sequence (looked up): T2 sequence (O95390 299-407)

[5] = biological target: T1, BMP9; test: Biacore-based binding assay (surface plasmon resonance), BMP9; conditions: SPR 37° C., FIG. 9, compared to Fc fusion with unmodified ActRIIB extracellular domain
Description: To determine ligand binding profiles of variant ActRIIB-Fc homodimers, a Biacore™-based binding assay was used to compare ligand binding kinetics of certain variant ActRIIB-Fc polypeptides. ActRIIB-Fc polypeptides to be tested were independently captured onto the system using an anti-Fc antibody. Ligands were then injected and allowed to flow over the captured receptor protein. ActRIIB-G1Fc was used as the control polypeptide.
To determine ligand binding profiles of variant ActRIIB-Fc homodimers, a Biacore™-based binding assay was used to compare ligand binding kinetics of certain variant ActRIIB-Fc polypeptides. ActRIIB-Fc polypeptides to be tested were independently captured onto the system using an anti-Fc antibody. Ligands were then injected and allowed to flow over the captured receptor protein.
A Biacore™-based binding assay was used to compare the ligand binding kinetics of an ActRIIB-Fc:ActRIIB(L79E)-Fc heterodimer with those of unmodified ActRIIB-Fc homodimer. Fusion proteins were captured onto the system using an anti-Fc antibody. Ligands were then injected and allowed to flow over the captured receptor protein at 37° C. Results are summarized in the table below, in which ligand off-rates (kd) most indicative of effective ligand traps are denoted in bold.

| Inhibitory Potency of Homodimeric ActRIIB-Fc Constructs IC50 BMP9 [1] [µg/mL] | Inhibitory Potency of Homodimeric ActRIIB-Fc Constructs IC50 GDF11 [2] [µg/mL] | Inhibitory Potency of Homodimeric ActRIIB-Fc Constructs IC50 Activin A [3] [µg/mL] | Substance | further results |
| --- | --- | --- | --- | --- |
| 5.5 | 0.365 | 0.396 | K55D: homodimeric ActRIIB-Fc fusion, K55D substitution in human ActRIIB extracellular domain |  |
| ~40 | 0.389 |  | F82W/N83A: homodimeric ActRIIB-Fc fusion, F82W and N83A substitutions in human ActRIIB extracellular domain |  |
| 0.165 | 0.045 |  | K74R: homodimeric ActRIIB-Fc fusion, K74R substitution in human ActRIIB extracellular domain |  |
|  | 0.414 |  | Y60K: homodimeric ActRIIB-Fc fusion, Y60K substitution in human ActRIIB extracellular domain |  |
| 0.777 | 0.318 | 0.206 | K55R: homodimeric ActRIIB-Fc fusion, K55R substitution in human ActRIIB extracellular domain |  |
|  | 0.544 |  | Y60P: homodimeric ActRIIB-Fc fusion, Y60P substitution in human ActRIIB extracellular domain |  |

The remaining lines, values behind:

| Substance | Inhibitory Potency of Homodimeric ActRIIB-Fc Constructs IC50 BMP9 [1] [µg/mL] | Inhibitory Potency of Homodimeric ActRIIB-Fc Constructs IC50 GDF11 [2] [µg/mL] | Inhibitory Potency of Homodimeric ActRIIB-Fc Constructs IC50 Activin A [3] [µg/mL] | further results |
| --- | --- | --- | --- | --- |
| R40A: homodimeric ActRIIB-Fc fusion, R40A substitution in human ActRIIB extracellular domain | 1.21 | 0.591 |  |  |
| L79R: homodimeric ActRIIB-Fc fusion, L79R substitution in human ActRIIB extracellular domain |  | 0.234 |  |  |
| Y60P (homodimeric ActRIIB-Fc construct) (Fc fusion) |  |  |  | IC50 (ng/ml), A204 CAGA12 luciferase reporter assay [4]: 544 ng/mL |
| K55A: homodimeric ActRIIB-G1Fc fusion with K55A substitution; mature SEQ ID NO: 33 |  |  |  | inhibition of BMP9 compared to fusion polypeptide with unmodified ActRIIB extracellular domain (in words) ([1]; A204 reporter gene assay): less potent inhibition of BMP9; selectivity of antagonism (activin A and GDF11 over BMP9) compared to unmodified ActRIIB-Fc ([1]; A204 reporter gene assay): more selective antagonists of activin A and GDF11; inhibition of activin A compared to fusion polypeptide with unmodified ActRIIB extracellular domain (in words) ([3]; A204 reporter gene assay): essentially undiminished inhibition of activin A and GDF11; reduction in affinity for BMP9 compared with reduction in affinity for GDF11 or activin A [5]: reduce ActRIIB binding affinity for BMP9 more than they reduce ActRIIB affinity for activin A or GDF11; reduction in affinity for BMP9 compared with reduction in affinity for GDF11 or activin A ([5]; listed as ActRIIB(K55A)-Fc): greater reduction in their affinity for BMP9 than for GDF11; inhibition of GDF11 compared to fusion polypeptide with unmodified ActRIIB extracellular domain (in words) ([2]; A204 reporter gene assay): essentially undiminished inhibition of activin A and GDF11 |
| E52K: homodimeric ActRIIB-Fc fusion, E52K substitution in human ActRIIB extracellular domain | ~10 | 0.296 | 0.762 |  |
| E50K: homodimeric ActRIIB-Fc fusion, E50K substitution in human ActRIIB extracellular domain | 0.721 | 0.18 | 0.132 |  |
| A24N: homodimeric ActRIIB-Fc fusion, A24N substitution in human ActRIIB extracellular domain | 0.409 | 0.099 | 0.128 |  |
| E50P: homodimeric ActRIIB-Fc fusion, E50P substitution in human ActRIIB extracellular domain | ~3 | 0.638 | 0.756 |  |
| L79R (homodimeric ActRIIB-Fc construct) (Fc fusion) |  |  |  | IC50 (ng/ml), A204 CAGA12 luciferase reporter assay [4]: 234 ng/mL |
| Y60K (homodimeric ActRIIB-Fc construct) (Fc fusion) |  |  |  | IC50 (ng/ml), A204 CAGA12 luciferase reporter assay [4]: 414 ng/mL |
| E52A: homodimeric ActRIIB-Fc fusion, E52A substitution in human ActRIIB extracellular domain | 0.359 | 0.071 | 0.198 |  |
| F82W (homodimeric ActRIIB-Fc construct) (Fc fusion) |  |  |  | IC50 (ng/ml), A204 CAGA12 luciferase reporter assay [4]: 276 ng/mL |
| F82W: homodimeric ActRIIB-Fc fusion, F82W substitution in human ActRIIB extracellular domain |  | 0.276 |  |  |
